T1: IRTA3 expressed on transfected CHO cells (full-length transmembrane form with N-terminal epitope tag) (human, UniProt Q96P31 18-734)
T1 construct: also called CHO line expressing IRTA3
T1 sequence: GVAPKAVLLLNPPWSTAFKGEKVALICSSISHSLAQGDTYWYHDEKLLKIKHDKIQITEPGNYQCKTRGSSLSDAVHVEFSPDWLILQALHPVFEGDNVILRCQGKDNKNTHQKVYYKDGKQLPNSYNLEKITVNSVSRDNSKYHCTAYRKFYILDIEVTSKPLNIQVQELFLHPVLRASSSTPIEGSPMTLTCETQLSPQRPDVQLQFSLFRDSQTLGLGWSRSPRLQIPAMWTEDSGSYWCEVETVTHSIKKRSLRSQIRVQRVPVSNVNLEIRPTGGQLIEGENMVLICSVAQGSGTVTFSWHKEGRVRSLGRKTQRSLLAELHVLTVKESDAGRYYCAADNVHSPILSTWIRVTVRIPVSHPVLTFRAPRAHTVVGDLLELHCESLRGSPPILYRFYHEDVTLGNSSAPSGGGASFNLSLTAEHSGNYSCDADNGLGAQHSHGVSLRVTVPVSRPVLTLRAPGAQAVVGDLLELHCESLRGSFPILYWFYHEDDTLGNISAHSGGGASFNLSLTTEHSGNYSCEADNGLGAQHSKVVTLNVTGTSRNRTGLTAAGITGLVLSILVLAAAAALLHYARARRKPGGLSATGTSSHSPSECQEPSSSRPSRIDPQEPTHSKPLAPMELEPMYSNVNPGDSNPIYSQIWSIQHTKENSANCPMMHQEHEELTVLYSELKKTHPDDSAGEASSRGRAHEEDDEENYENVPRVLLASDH

T2: IRTA4 expressed on transfected CHO cells (full-length transmembrane form with N-terminal epitope tag) (human, UniProt Q96LA5 20-508)
T2 construct: also called CHO line expressing IRTA4
T2 sequence: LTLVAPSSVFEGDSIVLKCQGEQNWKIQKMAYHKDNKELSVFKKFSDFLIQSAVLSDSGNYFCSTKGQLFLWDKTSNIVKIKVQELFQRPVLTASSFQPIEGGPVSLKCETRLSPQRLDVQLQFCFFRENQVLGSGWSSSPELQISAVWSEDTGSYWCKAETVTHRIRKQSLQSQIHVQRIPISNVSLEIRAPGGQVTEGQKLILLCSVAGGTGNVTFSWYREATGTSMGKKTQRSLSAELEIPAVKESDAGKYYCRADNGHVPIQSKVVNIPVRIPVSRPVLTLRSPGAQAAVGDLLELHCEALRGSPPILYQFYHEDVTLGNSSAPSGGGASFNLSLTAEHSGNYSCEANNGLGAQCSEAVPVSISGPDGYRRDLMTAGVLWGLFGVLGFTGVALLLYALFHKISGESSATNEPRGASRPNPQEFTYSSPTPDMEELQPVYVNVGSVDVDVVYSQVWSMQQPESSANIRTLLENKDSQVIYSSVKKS

B1: human monoclonal antibody 7G8 (antibody, V domains shown)
VH: DVHLVQSGGGLVHPGGSLRLSCAGSGFTFSTYTMHWIRQAPGKDLEWVSAIGTGGGTDYADSVKGRFTISRDNAKNSLYLQMNSLRAEDMAVYYCAREVYWYFDLWGRGTLVTVSS
VL: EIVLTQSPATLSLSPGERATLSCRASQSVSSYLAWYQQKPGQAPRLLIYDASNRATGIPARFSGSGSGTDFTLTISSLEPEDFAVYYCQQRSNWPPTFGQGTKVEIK
notes: Fully human IgG with kappa light chain from an HCo7 HuMab Mouse hybridoma; also called IRTA5 HuMAb 7G8; biotinylated 7G8
B2: human monoclonal antibody 2G5 (antibody, V domains shown)
VH: QVQLVESGGGVVQPGRSLRLSCAASGFTFSDYGMHWVRQAPGKGLEWVAVIWYDGNNKYYADSVKGRFTISRDNSKNTLYLQMNSLRAEDTAVYYCARDWGRAFDIWGQGTMVTVSS
VL: EIVLTQSPATLSLSPGERATLSCRASQSVSSYLAWYQQKPGQAPRLLIYDASNRATGIPARFSGSGSGTDFTLTISSLEPEDFALYYCQQLNNWPPYTFGQGTKLEIK
notes: Fully human IgG with kappa light chain from an HCo7 HuMab Mouse hybridoma; also called IRTA5 HuMAb 2G5; biotinylated 2G5
B3: human monoclonal antibody 5A2 (antibody, V domains shown)
VH: QVQVVESGGGVVQPGRSLRLSCAASGFTFSNYGMHWVRQAPGKGLEWVAGIWYDGSNKYYADSVKGRFTISRDNSKNTLYLQMNSLRAEDTAVYYCARESPNFDYWGQGTLVTVSS
VL: B2 VL with L85V, L91R, Y97W, L105V
notes: Fully human IgG with kappa light chain from an HCo7 HuMab Mouse hybridoma

Changes are numbered by the printed parent chain.

One assay concerns the target T1, IRTA3 expressed on transfected CHO …. Description: flow cytometry on transfected CHO cells. From the text: (§1) Chinese hamster ovary (CHO) cell lines that express one of each of the five IRTA proteins at the cell surface were developed and used to determine the specificity of the IRTA5 HuMAbs by flow cytometry. CHO cells were transfected with expression plasmids containing full length cDNA encoding transmembrane forms of IRTA1, IRTA2, IRTA3, IRTA4, or IRTA5. In addition, the transfected proteins contained an epitope tag at the N-terminus for detection by an antibody specific for the epitope. Binding of the seven anti-IRTA5 HuMAbs was assessed by incubating the transfected cells with each of the IRTA5 Abs at a concentration of 10 μg/ml. The cells were washed and binding was detected with a FITC-labeled anti-human IgG Ab. A murine anti-epitope tag Ab, followed by labeled anti-murine IgG, was used as the positive control. Non-specific human and murine Abs were used as negative controls. The results are depicted in FIG. 9. The IRTA5 HuMAbs bound to the CHO line transfected with IRTA5 but not to CHO lines expressing IRTA1, 2, or 4 as measured by the mean fluorescent intensity (MFI) of staining.
B1: the binding result was “no binding”.

For B2, the binding result is “no binding”.

Turning to B3, the binding result is recorded as “no binding”.

The next assay addresses T2, IRTA4 expressed on transfected CHO …. The assay can be described thus: flow cytometry on IRTA4-CHO cells, FITC-labeled anti-human IgG.
Source text: as §1
B1: the binding result is reported as “no binding (tested: 10 µg/ml)”.

For B2, the binding result is “no binding (tested: 10 µg/ml)”.

In the case of B3, the binding result was “no binding (tested: 10 µg/ml)”.

Another assay deals with T3, purified recombinant human IRTA5 fusion protein (human).
T3 construct: Amine-coupled to a CM5 chip in the Biacore kinetics; also called recombinant IRTA5 fusion protein
Description: Biacore SPR; IRTA5 fusion protein amine-coupled to CM5 chip, antibody flowed at 267 nM, 1:1 Langmuir fit. The protocol:
Anti-IRTA5 antibodies were characterized for affinities and binding kinetics by Biacore analysis (Biacore AB, Uppsala, Sweden). Purified recombinant human IRTA5 fusion protein was covalently linked to a CM5 chip (carboxy methyl dextran coated chip) via primary amines, using standard amine coupling chemistry and kit provided by Biacore. Binding was measured by flowing the antibodies in HBS EP buffer (provided by BIAcore AB) at a concentration of 267 nM at a flow rate of 50 μl/min. The antigen-ssociation antibodies association kinetics was followed for 3 minutes and the dissociation kinetics was followed for 7 minutes. The association and dissociation curves were fit to a 1:1 Langmuir binding model using BlAevaluation software (Biacore AB). To minimize the effects of avidity in the estimation of the binding constants, only the initial segment of data coressponding to association and dissociation phases were used for fitting.
Take B1: the Kd was 16.8 nM, the dissociation rate constant (koff) amounted to 0.00121 s⁻¹ and the on-rate constant (kon) was 72000 M⁻¹ s⁻¹.

In the case of B2, the Kd is 0.028 nM, the koff came out at 4.3e-06 s⁻¹ and the association rate constant (kon) is 152000 M⁻¹ s⁻¹.

Consider B3, for which the dissociation constant (Kd) came to 0.035 nM, the dissociation rate constant (koff) amounted to 8.7e-06 s⁻¹ and the kon came to 252000 M⁻¹ s⁻¹.

The values above are taken from US20050266008A1 (Bristol-Myers Squibb, published 2005).
